Patent US9486519B2, “Use of FLT3 ligand for enhancing immune responses in RNA immunization” (BioNTech AG, priority 2008, dated 2016)
“Also recorded” adds a separate entry of the source.

How the values were obtained:
[1] = tested on: SIINFEKL epitope-specific CD8+ T cells; experiment: Tetramer and intracellular IFNγ measurement after Flt3-L pretreatment and intranodal RNA immunization; format: in vivo, C57Bl/6 mice; details: dose above 2×10 μg; data not shown
[2] = tested on: B16 Ova tumors; experiment: Therapeutic vaccination against B16 Ova tumors, survival; format: in vivo, C57BL/6 mice
Protocol: To examine the synergy of combining Flt3L administration with RNA vaccination, a therapeutic tumor experiment was performed. To this end, 4 groups (n=10) of C57BL/6 mice were formed. All mice received on day 0 a s.c. injection of B16 Ova cells (2×10^5). Hereof a control group was only treated by IgG4 injection (10 μg; d3, d7, d14, d17). […] The Kaplan Meier plot of the survival rate of mice is shown.
To investigate the synergy of the combination of Flt3L administration together with RNA vaccination a therapeutic tumor experiment was performed. To this end four groups (n=10) of C57BL/6 mice were formed. All mice received on day 0 a s.c. injection of 2×10^5 B16 Ova tumor cells (Bellone et al., J. Immunol., 2000, 165:2651-2656). Thereof a control group was only treated by IgG4 injection (10 μg; d3, d7, d14, d17).

[3] = tested on: B16 Ova tumors; experiment: Therapeutic vaccination against B16 Ova tumors, tumor volume; format: in vivo, C57BL/6 mice
Protocol: Examination of tumor growth. To this end, four groups (n=10) of C57BL/6 mice were formed. All mice received on day 0 a s.c. injection of B16 Ova tumor cells (2×10^5). Hereof a control group was only treated by IgG4 injection (15 μg; d3, d7, d14, d18). […] The tumor volume was determined after tumor inoculation on a regular basis (d7, d10, d13, d16, d19, d22). The average tumor volume [mm^3] on the days following tumor inoculation [day] is shown.
To this end four groups (n=10) of C57BL/6 mice were formed. All mice received on day 0 a s.c. injection of 2×10^5 B16 Ova tumor cells (Bellone et al., J. Immunol., 2000, 165:2651-2656). Thereof a control group was only treated by injection of IgG4 (15 μg; d3, d7, d14, d18). […] The tumor volume was determined on the following days after tumor inoculation: d7, d10, d13, d16, d19 and d22 (d=day).

[4] = Half-time of Flt3L-IgG4 in serum, human IgG ELISA; format: in vivo, Balb/c mice
Protocol: At defined time points (prior to administration; 3 h, 24 h, 48 h, 3 d, 5 d, 7 d, 9 d, 14 d, 21 d) serum samples of the mice were preserved. These samples were used in an ELISA assay for quantifying human IgG. The half-time is 2.14 days (=51 hours).
At defined time points (prior to administration; 3 h, 24 h, 48 h, 3 d, 5 d, 7 d, 9 d, 14 d, 21 d) serum samples of the mice were preserved. These samples were used in an ELISA assay for quantifying human IgG. The half-time is 1,667 days (=40 hours).
Serum samples obtained from the mice were preserved at defined time points (prior to administration; 3 h, 24 h, 48 h, 3 d, 5 d, 7 d, 9 d, 14 d, 21d). Human IgG was quantified in these samples by means of an ELISA assay. Due to the fusion of human IgG4 to FIt3L in this construct the Flt3L concentration can be determined by quantifying human IgG in serum of mice.

[5] = tested on: antigen-specific CD8+ T lymphocytes; experiment: Effects of different Flt3L on the stimulation of naive T cells, MHC multimer measurement in peripheral blood; format: in vivo, C57BL/6 mice; details: 0.4 mol i.p. day 0, +3; 20 μg SIINFEKL coding RNA day +7, +10; blood day +15
Protocol: (§1) These mice were immunized intralymphatically on day +7, +10 with 20 μg […] coding RNA. The control group remained untreated (n=2). On day +15 the frequency of antigen-specific CD8^+ T lymphocytes was measured in peripheral blood by means of MHC multimer measurement.
To this end a product recombinantly expressed in bacteria (Peprotech Flt3L) and a product expressed in human HEK293 cells (Humanzyme Flt3L) was used; cf. Example 7. Human IgG4 served as control.
as §1, with “measured by flow cytometry” for “measured”, “measurement (Beckman Coulter).” for “measurement.”
The mice were administered intraperitoneally Flt3L in equimolar amounts (day 0, +3). In addition, mice were immunized intranodally twice with […] coding RNA (+7, +10). The success of the immunization was quantified by flow cytometry on day +15 by means of tetramer staining.

[6] = tested on: dendritic cells; experiment: Dendritic cell subpopulations in spleen and lymph nodes by flow cytometry after i.p. Flt3-L; format: in vivo, C57Bl/6 mice; details: 10 μg i.p. d0, d3; day 10
Protocol: C57Bl/6 mice (n=3) were administered 10 μg Flt3L twice (d0, d3) intraperitoneally. On day 10 the inguinal lymph nodes were removed, the cells were stained with corresponding antibodies and the subpopulations of the dendritic cells were quantified by flow cytometry. The data shown represent the average cell count of the subpopulation *: p<0.05 and **: p<0.001 in the two-sided unpaired t-test.
(§2) To test the effects of application of human Flt3 ligand on the efficiency of RNA-based immunizations, the changes in the cellular composition of lymph nodes and spleen were first investigated in the mouse model. For this, various application schemes (2×, 3×, 5×10 μg) of recombinant Flt3-L were applied intraperitoneally and the cellularity was determined 10-12 days after the first injection. […] This increase could be shown for all relevant subpopulations of the dendritic cells in spleen and lymph nodes (FIG. 2).

[7] = tested on: lymph nodes and spleen; experiment: Cellularity of lymph nodes and spleen after i.p. Flt3-L; format: in vivo, C57Bl/6 mice; details: 2x, 3x, 5x 10 μg i.p.; 10-12 days after the first injection
Protocol: C57Bl/6 mice (n=3-9) were administered 10 μg Flt3L intraperitoneally at different timepoints (d1 to d3 or d1, d1, d3 or d0, d3). On day 10 the lymph nodes (LN) and the spleen were removed and the cell count was determined. The data shown represent the average cell count +SEM of the lymph nodes. *: p<0.05 in Tukey's multiple comparison test.
as §2

B1: Flt3L-IgG4: recombinant human Flt3 ligand prepared as a fusion protein with IgG4, SEQ ID NO: 6, expressed in HEK293 cells (protein)
chain: MTVLAPAWSPTTYLLLLLLLSSGLSGTQDCSFQHSPISSDFAVKIRELSDYLLQDYPVTVASNLQDEELCGGLWRLVLAQRWMERLKTVAGSKMQGLLERVNTEIHFVTKCAFQPPPSCLRFVQTNISRLLQETSEQLVALKPWITRQNFSRCLELQCQPDSSTLPPPWSPRPLEATAPTAPQPPRSPPCPSCPAPEFLGGPSVFLFPPKPKDTLMISRTPEVTCVVVDVSQEDPEVQFNWYVDGVEVHNAKTKPREEQFNSTYRVVSVLTVLHQDWLNGKEYKCKVSNKGLPSSIEKTISKAKGQPREPQVYTLPPSQEEMTKNQVSLTCLVKGFYPSDIAVEWESNGQPENNYKTTPPVLDSDGSFFLYSRLTVDKSRWQEGNVFSCSVMHEALHNHYTQKSLSLSPGK
modifications: Fusionsprotein
- immune response on increase of the Flt3-L dose [1]: not correlated with a further intensification of the immune response
- portion of mice surviving in the long term ([2]; Flt3L-IgG4 15 μg in combination with intranodal RNA vaccination 20 μg): about 80%
- survival in the long term ([2]; Flt3L-IgG4 15 μg without RNA vaccination): 10%
- therapeutic effect on tumor growth ([2]; Flt3L-IgG4 without RNA vaccination): minimal therapeutic effect on tumor growth
- effect of the combination with intranodal vaccination of RNA ([2]; survival): synergistic effect
- tumor growth ([3]; Flt3L administration combined with RNA vaccination): complete suspension of tumor growth
- tumor growth ([3]; only Flt3L administered, 15 μg): slight delay of tumor growth
- effect of the combination with intranodal vaccination of RNA ([3]; tumor volume): synergistic effect
- detectable in serum after injection ([4]; 20 μg and 50 μg i.p.): up to 5 days
- half-life in serum ([4]; 20 μg i.p.): 51 h
- half-time in serum ([4]; 20 μg i.p.): 2.14 days
- half-life in serum ([4]; 50 μg i.p.): 40 h
- stability compared to Flt3L without IgG4 fusion ([4]; from serum half-life): increased stability
- adjuvant effect (frequency of antigen-specific CD8+ T lymphocytes) [5]: significant adjuvant effect; also recorded: strongest effect
- dendritic cells in spleen and lymph nodes [6]: increase in dendritic cells
- cellularity in spleen and lymph nodes [7]: increase in cellularity in spleen and lymph nodes
